# Test results from patent US20110076234A1 (MOLMED, published 2011).
# *1 amine or outer side, *2 acyl side, *3 side chain or, on linkers, in order; H or OH if unused. Where no end group is shown, it is not given here. [ ]: non-standard residue; d: D form. βAsp = O=C(O)[C@H](CC(=O)[*:2])N[*:1]
# Target: T1, Human αvβ3 integrin (purified) (human, UniProt P06756 31-1048; P05106 27-788)
# T1 construct: Bought purified integrin, adsorbed on microtiter plates (0.5-2 µg/ml in DPBS with Ca2+ and Mg2+); also called avβ3; vitronectin receptor
# Assay: competitive ELISA on αvβ3-coated plates with biotinylated NGR-TNF as labelled ligand (legend of FIG. 7)
# T1 sequence (P06756 31-1048, form in doubt, chain 1 of 2): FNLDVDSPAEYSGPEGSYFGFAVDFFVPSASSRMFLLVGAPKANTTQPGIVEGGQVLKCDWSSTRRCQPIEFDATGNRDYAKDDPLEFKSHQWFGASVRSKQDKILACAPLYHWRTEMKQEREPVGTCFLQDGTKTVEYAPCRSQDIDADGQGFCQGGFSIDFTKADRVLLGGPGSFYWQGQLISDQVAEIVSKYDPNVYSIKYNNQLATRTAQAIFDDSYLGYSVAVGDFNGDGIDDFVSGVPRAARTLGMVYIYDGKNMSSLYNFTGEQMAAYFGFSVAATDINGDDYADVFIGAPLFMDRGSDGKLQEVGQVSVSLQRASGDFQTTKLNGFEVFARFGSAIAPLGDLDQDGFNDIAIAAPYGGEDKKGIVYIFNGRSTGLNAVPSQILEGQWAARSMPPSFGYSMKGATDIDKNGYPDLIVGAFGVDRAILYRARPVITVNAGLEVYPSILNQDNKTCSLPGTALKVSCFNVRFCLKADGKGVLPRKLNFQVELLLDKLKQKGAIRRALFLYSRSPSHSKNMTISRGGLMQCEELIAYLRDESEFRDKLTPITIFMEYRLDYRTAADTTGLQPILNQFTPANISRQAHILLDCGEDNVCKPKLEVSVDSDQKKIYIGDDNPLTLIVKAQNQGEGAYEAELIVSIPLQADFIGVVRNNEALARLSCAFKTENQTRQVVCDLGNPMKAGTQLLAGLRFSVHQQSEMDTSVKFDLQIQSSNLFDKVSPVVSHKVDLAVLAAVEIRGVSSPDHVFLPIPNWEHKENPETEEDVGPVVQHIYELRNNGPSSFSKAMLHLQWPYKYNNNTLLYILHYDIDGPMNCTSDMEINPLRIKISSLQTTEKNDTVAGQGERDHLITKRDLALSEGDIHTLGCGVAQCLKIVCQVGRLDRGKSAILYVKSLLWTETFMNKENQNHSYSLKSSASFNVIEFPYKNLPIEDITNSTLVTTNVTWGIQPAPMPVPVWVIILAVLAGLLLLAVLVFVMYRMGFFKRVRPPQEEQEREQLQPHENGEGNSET
# T1 sequence (P05106 27-788, form in doubt, chain 2 of 2): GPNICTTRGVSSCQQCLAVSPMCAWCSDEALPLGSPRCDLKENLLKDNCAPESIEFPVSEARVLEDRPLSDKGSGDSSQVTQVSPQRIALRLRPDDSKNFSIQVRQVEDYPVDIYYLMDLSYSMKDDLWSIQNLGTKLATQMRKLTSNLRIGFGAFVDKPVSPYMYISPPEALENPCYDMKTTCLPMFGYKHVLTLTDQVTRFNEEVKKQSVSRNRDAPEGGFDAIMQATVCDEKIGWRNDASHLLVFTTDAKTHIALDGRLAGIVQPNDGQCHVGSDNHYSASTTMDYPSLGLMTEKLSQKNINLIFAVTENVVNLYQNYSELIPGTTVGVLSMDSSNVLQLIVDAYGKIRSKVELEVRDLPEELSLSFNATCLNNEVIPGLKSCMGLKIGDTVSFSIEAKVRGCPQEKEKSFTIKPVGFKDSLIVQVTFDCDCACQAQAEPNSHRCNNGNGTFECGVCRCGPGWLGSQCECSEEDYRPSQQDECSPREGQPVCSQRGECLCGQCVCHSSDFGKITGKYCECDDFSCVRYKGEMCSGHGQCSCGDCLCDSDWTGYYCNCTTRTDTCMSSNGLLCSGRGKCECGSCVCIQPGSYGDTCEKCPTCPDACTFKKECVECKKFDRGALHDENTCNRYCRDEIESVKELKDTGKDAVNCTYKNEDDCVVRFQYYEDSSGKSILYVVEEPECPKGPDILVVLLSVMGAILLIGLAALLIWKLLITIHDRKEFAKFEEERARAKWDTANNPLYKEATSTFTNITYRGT
row,EC50 [nM],Binder
1,100,C[dD]GRCGVRY (cysteine pairing not given here) [D-DGR-pep (sequence of NGR-pep with D-D in place of N)]
2,100,C[βAsp]GRCGVRY (cysteine pairing not given here) [isoDGR-pep (sequence of NGR-pep with L-isoD in place of N)]
